Data published in PMC10728069.

B1: Bsr-d1 promoter probe 2 (dsDNA)
DNA 1: ACCGCTCGCTGCTGCTGCTACGTACTA
DNA 2: TAGTACGTAGCAGCAGCAGCGAGCGGT
B2: Bsr-d1 promoter probe 3 (dsDNA)
DNA 1: CTACGTACTATACAGCTTGATTAATTAG
DNA 2: CTAATTAATCAAGCTGTATAGTACGTAG
B3: Bsr-d1 promoter probe 4 (dsDNA)
DNA 1: AGCTTGATTAATTAGGTTTTACGACGAC
DNA 2: GTCGTCGTAAAACCTAATTAATCAAGCT
B4: Bsr-d1 promoter probe 5 (dsDNA)
DNA 1: GGTTTTACGACGACGGCAACGGGGACAGAT
DNA 2: ATCTGTCCCCGTTGCCGTCGTCGTAAAACC
B5: Bsr-d1 promoter probe 1 (dsDNA)
DNA 1: AATCCCATCAAATCATCCACCGCTCGCT
DNA 2: AGCGAGCGGTGGATGATTTGATGGGATT
B6: probe 1 mutant competitor (dsDNA)
DNA 1: AATCCCATCAAATCATCCAAAAAAAAAT
DNA 2: ATTTTTTTTTGGATGATTTGATGGGATT
B7: probe 2 mutant competitor (dsDNA)
DNA 1: ACTAAAGAGAGCTGCTGCTACGTACTA
DNA 2: TAGTACGTAGCAGCAGCTCTCTTTAGT

Each binder was assayed against T1, His-MoSPAB1ΔSP (Magnaporthe oryzae, UniProt G4N0C3 22-298) (assay: EMSA; […], buffer not stated; […]). Conditions: protein: recombinant; tags: His, ProS2 (pCold-ProS2); label: 5' biotin (both strands); blunt.

| Binder | binding result |
| --- | --- |
| B1 | binds |
| B2 | binds |
| B3 | binds |
| B4 | binds |
| B5 | binds |

Each binder was assayed against T1, His-MoSPAB1ΔSP (assay: competition; […], buffer not stated; […]). Conditions: protein: recombinant; tags: His, ProS2 (pCold-ProS2); blunt.

| Binder | binding result |
| --- | --- |
| B6 | no binding |
| B7 | no binding |
